In PMC11417369, “DNA sequence and chromatin differentiate sequence-specific transcription factor binding in the human malaria parasite Plasmodium falciparum”:

T1: AP2-G D1 (Plasmodium falciparum, UniProt Q8I5I9 2123-2245)
T1 sequence: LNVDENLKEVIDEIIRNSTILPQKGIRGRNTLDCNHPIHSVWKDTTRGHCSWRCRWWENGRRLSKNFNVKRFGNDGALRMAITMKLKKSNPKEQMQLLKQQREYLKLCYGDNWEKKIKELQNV

B1: XGTACX_site3444 (dsDNA)
DNA 1: TATATTATATATTTATGTACGTATTTGTAAAAAGAT
DNA 2: ATCTTTTTACAAATACGTACATAAATATATAATATA
B2: XGTACX_site6677 (dsDNA)
DNA 1: TTGTATTTCCTTAGGAGTACACATAAATAAGTAAAT
DNA 2: ATTTACTTATTTATGTGTACTCCTAAGGAAATACAA
B3: XGTACX_site3050 (dsDNA)
DNA 1: ATATAATTTTTCAAGTGTACTTTTTTTTTTTAACAT
DNA 2: ATGTTAAAAAAAAAAAGTACACTTGAAAAATTATAT
B4: XGTACX_site206 (dsDNA)
DNA 1: TGTTTATACATCAGGTGTACGCAAAATAATTGTATG
DNA 2: CATACAATTATTTTGCGTACACCTGATGTATAAACA
B5: XGTACX_site6504 (dsDNA)
DNA 1: TGAAAAGATAAAAAAAGTACACACACACATATATAT
DNA 2: ATATATATGTGTGTGTGTACTTTTTTTATCTTTTCA
B6: XGTACX_site6072 (dsDNA)
DNA 1: CGTTTATATTTTAACTGTACTCAAAAAGTGCATTGT
DNA 2: ACAATGCACTTTTTGAGTACAGTTAAAATATAAACG
B7: XGTACX_site4956 (dsDNA)
DNA 1: AATAAATGGAAAAGGTGTACACAAAAAAAAGGGAAA
DNA 2: TTTCCCTTTTTTTTGTGTACACCTTTTCCATTTATT
B8: XGTACX_site882 (dsDNA)
DNA 1: TTTTCTTTTTTGAACTGTACGCGTAAATTTAAAAAG
DNA 2: CTTTTTAAATTTACGCGTACAGTTCAAAAAAGAAAA
B9: XGTACX_site622 (dsDNA)
DNA 1: CTTTGTGTTAAAAGTAGTACACCAAAAATATGACTT
DNA 2: AAGTCATATTTTTGGTGTACTACTTTTAACACAAAG
B10: XGTACX_site5339 (dsDNA)
DNA 1: TATTTTTTACATTCGTGTACGCATTTTTGTGAATTT
DNA 2: AAATTCACAAAAATGCGTACACGAATGTAAAAAATA
B11: XGTACX_site3178 (dsDNA)
DNA 1: CTTGAAAGATTTTATTGTACTCATAAGATACATTTC
DNA 2: GAAATGTATCTTATGAGTACAATAAAATCTTTCAAG
B12: XGTACX_site4340 (dsDNA)
DNA 1: TGATACTTTTTTTGTAGTACTCCTAAAATTATAAAA
DNA 2: TTTTATAATTTTAGGAGTACTACAAAAAAAGTATCA
B13: XGTACX_site3596 (dsDNA)
DNA 1: AAGGAAAATTTTTGGTGTACACAAAAAAATCCAAAA
DNA 2: TTTTGGATTTTTTTGTGTACACCAAAAATTTTCCTT
B14: XGTACX_site3752 (dsDNA)
DNA 1: TAAAAAAAAAAAAAAAGTACACACATACATATAAAT
DNA 2: ATTTATATGTATGTGTGTACTTTTTTTTTTTTTTTA
B15: XGTACX_site8267 (dsDNA)
DNA 1: AGATAAATATATTGTAGTACAGGAGCATAAATATAT
DNA 2: ATATATTTATGCTCCTGTACTACAATATATTTATCT
B16: XGTACX_site2346 (dsDNA)
DNA 1: TTAATAATAAAAAGGAGTACACTAATATACTATAAA
DNA 2: TTTATAGTATATTAGTGTACTCCTTTTTATTATTAA
B17: XGTACX_site8426 (dsDNA)
DNA 1: TAATATTTATAATAGTGTACACAATTATAAACTGAA
DNA 2: TTCAGTTTATAATTGTGTACACTATTATAAATATTA
B18: XGTACX_site146 (dsDNA)
DNA 1: GGACGTATTAAAAGGCGTACACTAAATATTTTATGT
DNA 2: ACATAAAATATTTAGTGTACGCCTTTTAATACGTCC
B19: XGTACX_site3586 (dsDNA)
DNA 1: TATACATACATTAGACGTACACATTTTACCTACACC
DNA 2: GGTGTAGGTAAAATGTGTACGTCTAATGTATGTATA
B20: XGTACX_site7025 (dsDNA)
DNA 1: TTTTTCTTTTTTTGGGGTACAGGGAAATCTATATTT
DNA 2: AAATATAGATTTCCCTGTACCCCAAAAAAAGAAAAA
B21: XGTACX_site4360 (dsDNA)
DNA 1: GATTAAAATCAAAGGTGTACGCACAAATAAGTCCCA
DNA 2: TGGGACTTATTTGTGCGTACACCTTTGATTTTAATC
B22: XGTACX_site5457 (dsDNA)
DNA 1: ATGGATAACAATATGTGTACACATTTATATCTCCAC
DNA 2: GTGGAGATATAAATGTGTACACATATTGTTATCCAT
B23: XGTACX_site1983 (dsDNA)
DNA 1: GTTTGGTGGTGTTTTGGTACGTACGGGGGGGTATGT
DNA 2: ACATACCCCCCCGTACGTACCAAAACACCACCAAAC
B24: XGTACX_site5245 (dsDNA)
DNA 1: AAAAACAAAATTTGGAGTACAGTTATAATATTATTA
DNA 2: TAATAATATTATAACTGTACTCCAAATTTTGTTTTT
B25: XGTACX_site8307 (dsDNA)
DNA 1: AAATTATAAAAATGTAGTACAGACAATATATTCGTA
DNA 2: TACGAATATATTGTCTGTACTACATTTTTATAATTT
B26: XGTACX_site7727 (dsDNA)
DNA 1: GGTGTATGTTAAAGGAGTACATATATATATATATAT
DNA 2: ATATATATATATATATGTACTCCTTTAACATACACC
B27: XGTACX_site8253 (dsDNA)
DNA 1: TTTTATGAAAAGATGAGTACACAATACTTTTTAATT
DNA 2: AATTAAAAAGTATTGTGTACTCATCTTTTCATAAAA
B28: XGTACX_site6887 (dsDNA)
DNA 1: TATTTTCCATGAGGTAGTACACATTAAAAAATCGTT
DNA 2: AACGATTTTTTAATGTGTACTACCTCATGGAAAATA
B29: XGTACX_site5031 (dsDNA)
DNA 1: ACATTATATAAAATATGTACACATAAATAAATAAAT
DNA 2: ATTTATTTATTTATGTGTACATATTTTATATAATGT
B30: XGTACX_site4899 (dsDNA)
DNA 1: TATTCGTGCAATAGTAGTACACTTATAAATTATTCT
DNA 2: AGAATAATTTATAAGTGTACTACTATTGCACGAATA
B31: XGTACX_site7170 (dsDNA)
DNA 1: GTTTAGATAAAAGGGCGTACATCTATTTTTGACTAA
DNA 2: TTAGTCAAAAATAGATGTACGCCCTTTTATCTAAAC
B32: XGTACX_site2251 (dsDNA)
DNA 1: GTGTAAAAATTAAAGTGTACACATATATATATATAT
DNA 2: ATATATATATATATGTGTACACTTTAATTTTTACAC

target: T1, AP2-G D1; assay: gcPBM; about 25 ug protein; PBS, 1% milk, 0.2 mg/ml BSA, salmon testes DNA, 0.03% Triton X-100; details: tags: N-terminal GST (pGEX-4T-1), kept; label: surface-attached array probe

First: B1
Second: B2
The binding signal of the first is higher: 12.8 ln median PBM intensity, better of two orientations for the first, 12.7 ln median PBM intensity, better of two orientations for the second.

B3 and B4 are the same in binding signal: 12.7 ln median PBM intensity, better of two orientations for the first, 12.7 ln median PBM intensity, better of two orientations for the second.

B5 and B6 are the same in binding signal: 12.7 ln median PBM intensity, better of two orientations for the first, 12.7 ln median PBM intensity, better of two orientations for the second.

Going from B7 to B8, the binding signal falls from 12.8 ln median PBM intensity, better of two orientations to 12.7 ln median PBM intensity, better of two orientations.

B9 and B10 are the same in binding signal: 12.7 ln median PBM intensity, better of two orientations for the first, 12.7 ln median PBM intensity, better of two orientations for the second.

First: B11
Second: B12
The binding signal of the first is lower: 12.7 ln median PBM intensity, better of two orientations for the first, 12.8 ln median PBM intensity, better of two orientations for the second.

Compared with B13, B14 is lower in binding signal: 12.8 ln median PBM intensity, better of two orientations for the first, 12.7 ln median PBM intensity, better of two orientations for the second.

Compared with B15, B16 is lower in binding signal: 12.8 ln median PBM intensity, better of two orientations for the first, 12.7 ln median PBM intensity, better of two orientations for the second.

Going from B17 to B18, the binding signal rises from 12.7 ln median PBM intensity, better of two orientations to 12.8 ln median PBM intensity, better of two orientations.

Going from B19 to B20, the binding signal falls from 12.8 ln median PBM intensity, better of two orientations to 12.7 ln median PBM intensity, better of two orientations.

First: B21
Second: B22
The binding signal of the first is lower: 12.7 ln median PBM intensity, better of two orientations for the first, 12.8 ln median PBM intensity, better of two orientations for the second.

B23 and B24 are the same in binding signal: 12.7 ln median PBM intensity, better of two orientations for the first, 12.7 ln median PBM intensity, better of two orientations for the second.

B25 and B26 are the same in binding signal: 12.7 ln median PBM intensity, better of two orientations for the first, 12.7 ln median PBM intensity, better of two orientations for the second.

Going from B27 to B28, the binding signal rises from 12.7 ln median PBM intensity, better of two orientations to 12.8 ln median PBM intensity, better of two orientations.

B29 and B30 are the same in binding signal: 12.7 ln median PBM intensity, better of two orientations for the first, 12.7 ln median PBM intensity, better of two orientations for the second.

First: B31
Second: B32
The binding signal of the first is lower: 12.7 ln median PBM intensity, better of two orientations for the first, 12.8 ln median PBM intensity, better of two orientations for the second.
